The source of these data is IntAct's records for PubMed 24152121.

The target in one test is vp26a_mouse Vps26a (UniProt P40336).
The next test concerns the target vps29_mouse Vps29 (UniProt Q9QZ88).

As to “Vacuolar protein sorting-associated protein 35 (Homo sapiens) (from UniProt Q96QK1) D620N”, the “effect of a mutation on the interaction” value with vp26a_mouse Vps26a and in the test with vps29_mouse Vps29 was “with no effect” each time.
